According to the Immune Epitope Database (IEDB):
pKd: −log10 of the molar value. One block for each sequence: values may come before it.

Assays:
HLA-A*02:01 [1] = assay: IEDB peptide-MHC binding, purified MHC/competitive/radioactivity; filed as Kd, often an IC50 or EC50 that approximates it; ≥ and ≤ were set here for values at or beyond the usual limits of such assays
HLA-A*02:06 = assay: as above
HLA-A*02:17 = assay: as above
HLA-A*02:03 [2] = assay: as above
HLA-B*08:01 = assay: as above
HLA-A*02:01 [3] = assay: IEDB peptide-MHC binding, purified MHC/competitive/fluorescence; filed as Kd, often an IC50 or EC50 that approximates it; ≥ and ≤ were set here for values at or beyond the usual limits of such assays
HLA-A*02:12 = assay: as above
HLA-A*02:16 = assay: as above
HLA-B*18:01 = assay: as above
HLA-A*02:11 = assay: as above
HLA-A*24:03 = assay: as above
HLA-A*29:02 = assay: as above
HLA-A*03:01 = assay: as above
HLA-A*02:19 = assay: as above
HLA-B*15:01 [4] = assay: as above
HLA-B*15:17 = assay: as above
HLA-A*69:01 = assay: as above
HLA-B*39:01 = assay: as above
HLA-B*27:03 = assay: as above
HLA-B*46:01 = assay: as above
HLA-A*02:03 [5] = assay: as above
HLA-B*51:01 [6] = assay: as above
HLA-B*57:01 = assay: as above
HLA-A*26:01 = assay: as above
HLA-B*51:01 [7] = assay: IEDB peptide-MHC binding, purified MHC/competitive/radioactivity; filed as Kd, often an IC50 or EC50 that approximates it; ≥ and ≤ were set here for values at or beyond the usual limits of such assays; settings: source organism: Dengue virus 2 Jamaica/1409/1983
HLA-A*68:02 [8] = assay: IEDB peptide-MHC binding, purified MHC/competitive/fluorescence; filed as Kd, often an IC50 or EC50 that approximates it; ≥ and ≤ were set here for values at or beyond the usual limits of such assays
HLA-B*35:01 = assay: IEDB peptide-MHC binding, purified MHC/competitive/radioactivity; filed as Kd, often an IC50 or EC50 that approximates it; ≥ and ≤ were set here for values at or beyond the usual limits of such assays
HLA-B*53:01 = assay: as above
HLA-B*58:01 = assay: as above
HLA-B*51:01 [9] = assay: IEDB peptide-MHC binding, purified MHC/direct/fluorescence; filed as Kd, often an IC50 or EC50 that approximates it; ≥ and ≤ were set here for values at or beyond the usual limits of such assays
HLA-B*07:02 = assay: as above
HLA-B*15:01 [10] = assay: as above
HLA-A*68:02 [11] = assay: IEDB peptide-MHC binding, purified MHC/competitive/radioactivity; filed as Kd, often an IC50 or EC50 that approximates it; ≥ and ≤ were set here for values at or beyond the usual limits of such assays; settings: source organism: Dengue virus 3 Singapore/8120/1995
HLA-A*32:01 = assay: as above
[12] = source organism: Dengue virus 2 Jamaica/1409/1983
[13] = source organism: Dengue virus 4 Philippines/H241/1956
[14] = source organism: Cryptosporidium parvum Iowa II
[15] = source organism: Escherichia coli F11
[16] = source organism: Dengue virus 3 Martinique/1243/1999
[17] = source organism: West Nile virus
[18] = source organism: Burkholderia mallei
[19] = source organism: Vibrio cholerae 2740-80
[20] = source organism: Vibrio cholerae
[21] = source organism: Dengue virus 1 Singapore/S275/1990
[22] = source organism: Dengue virus 1 Brazil/97-11/1997
[23] = source organism: Dengue virus 3 China/80-2/1980
[24] = source organism: Dengue virus 3 Singapore/8120/1995
[25] = source organism: Dengue virus 1 Nauru/West Pac/1974
[26] = source organism: Brucella suis 1330
[27] = source organism: Vibrio vulnificus YJ016

Sequence: ALIFILLTAV
pKd (HLA-A*02:01 [1]; [12]): 9.30
pKd (HLA-A*02:06; [12]): 7.25
pKd (HLA-A*02:17; [12]): ≤ 4.40
pKd (HLA-A*02:03 [2]; [12]): 7.88

Sequence: ALWDVPSPA
pKd (HLA-A*02:01 [1]; [13]): 8.57
pKd (HLA-A*02:17; [13]): 6.05
pKd (HLA-A*02:03 [2]; [13]): 7.77

Sequence: CLWPKTHTL
pKd (HLA-A*02:01 [1]; [13]): 7.86
pKd (HLA-B*08:01; [13]): 8.24
pKd (HLA-A*02:17; [13]): 6.60

Sequence: DLAQDPMLI
pKd (HLA-A*02:01 [3]; [14]): ≤ 4.70
pKd (HLA-A*02:12; [14]): ≤ 4.70
pKd (HLA-A*02:16; [14]): 6.40
pKd (HLA-B*18:01; [14]): ≤ 4.70
pKd (HLA-A*02:11; [14]): ≤ 4.70
pKd (HLA-A*24:03; [14]): ≤ 4.70
pKd (HLA-A*29:02; [14]): ≤ 4.70
pKd (HLA-A*03:01; [14]): ≤ 4.70
pKd (HLA-A*02:19; [14]): ≤ 4.70
pKd (HLA-B*15:01 [4]; [14]): ≤ 4.70
pKd (HLA-B*15:17; [14]): ≤ 4.70
pKd (HLA-A*69:01; [14]): ≤ 4.70
pKd (HLA-B*39:01; [14]): ≤ 4.70
pKd (HLA-B*27:03; [14]): ≤ 4.70
pKd (HLA-B*46:01; [14]): ≤ 4.70
pKd (HLA-A*02:03 [5]; [14]): ≤ 4.70
pKd (HLA-B*51:01 [6]; [14]): ≤ 4.70
pKd (HLA-B*57:01; [14]): ≤ 4.70
pKd (HLA-A*26:01; [14]): ≤ 4.70

Sequence: FLFLMSGKGI
pKd (HLA-A*02:01 [1]; [12]): 7.40
pKd (HLA-A*02:17; [12]): 5.88
pKd (HLA-A*02:03 [2]; [12]): 7.94
pKd (HLA-B*51:01 [7]): 5.25

pKd (HLA-A*02:01 [3]; [15]): ≤ 4.70
pKd (HLA-A*02:12; [15]): 5.90
pKd (HLA-A*02:16; [15]): ≤ 4.70
pKd (HLA-B*18:01; [15]): ≤ 4.70
pKd (HLA-A*02:11; [15]): ≤ 4.70
pKd (HLA-A*24:03; [15]): ≤ 4.70
pKd (HLA-A*29:02; [15]): ≤ 4.70
pKd (HLA-A*03:01; [15]): ≤ 4.70
pKd (HLA-A*02:19; [15]): ≤ 4.70
pKd (HLA-B*15:01 [4]; [15]): ≤ 4.70
pKd (HLA-B*15:17; [15]): ≤ 4.70
pKd (HLA-A*68:02 [8]; [15]): ≤ 4.70
pKd (HLA-A*69:01; [15]): ≤ 4.70
pKd (HLA-B*39:01; [15]): ≤ 4.70
pKd (HLA-B*27:03; [15]): ≤ 4.70
pKd (HLA-B*46:01; [15]): ≤ 4.70
pKd (HLA-A*02:03 [5]; [15]): ≤ 4.70
pKd (HLA-B*51:01 [6]; [15]): ≤ 4.70
pKd (HLA-B*57:01; [15]): ≤ 4.70
pKd (HLA-A*26:01; [15]): ≤ 4.70
Sequence: GSGDDTWLI

Sequence: IASAIVLEF
pKd (HLA-B*35:01; [16]): 8.05
pKd (HLA-B*53:01; [16]): 8.12
pKd (HLA-B*58:01; [16]): 8.54

Sequence: IPTAAGKNL
pKd (HLA-B*51:01 [9]; [17]): ≤ 4.70

Sequence: KLAQVRRAM
pKd (HLA-B*07:02; [18]): 8.22
pKd (HLA-B*15:01 [10]; source organism: Burkholderia mallei ATCC 23344): 7.57
pKd (HLA-B*51:01 [9]; [18]): ≤ 4.70

Sequence: LAVFPAMFW
pKd (HLA-A*02:01 [3]; [19]): ≤ 4.70
pKd (HLA-A*02:12; [19]): ≤ 4.70
pKd (HLA-A*02:16; [19]): ≤ 4.70
pKd (HLA-B*18:01; [19]): ≤ 4.70
pKd (HLA-A*02:11; [19]): ≤ 4.70
pKd (HLA-A*03:01; [19]): ≤ 4.70
pKd (HLA-A*02:19; [19]): ≤ 4.70
pKd (HLA-B*15:01 [4]; [19]): ≤ 4.70
pKd (HLA-A*68:02 [8]; [19]): ≤ 4.70
pKd (HLA-A*69:01; [19]): ≤ 4.70
pKd (HLA-B*39:01; [19]): ≤ 4.70
pKd (HLA-B*27:03; [19]): ≤ 4.70
pKd (HLA-B*46:01; [19]): ≤ 4.70
pKd (HLA-A*02:03 [5]; [19]): ≤ 4.70
pKd (HLA-B*57:01; [19]): 7.42
pKd (HLA-A*26:01; [19]): ≤ 4.70

Sequence: LLRQHWLSL
pKd (HLA-B*07:02; [20]): 7.89
pKd (HLA-B*15:01 [10]; source organism: Vibrio cholerae O395): 7.31
pKd (HLA-B*51:01 [9]; [20]): ≤ 4.70

Sequence: LMLLALIAV
pKd (HLA-A*02:01 [1]; [21]): 7.63
pKd (HLA-A*02:06; [22]): 8.09
pKd (HLA-A*02:17; [21]): 6.26

Sequence: MALKLITQF
pKd (HLA-B*35:01; [16]): 8.90
pKd (HLA-B*53:01; [16]): 7.65
pKd (HLA-B*58:01; [16]): 8.67

Sequence: MIAGVLFTFV
pKd (HLA-A*02:01 [1]; [23]): 7.97
pKd (HLA-A*02:06; [24]): 8.61
pKd (HLA-A*02:17; [23]): 6.37
pKd (HLA-A*68:02 [11]): 8.76
pKd (HLA-A*02:03 [2]; [24]): 8.73

Sequence: MLDVDLHPA
pKd (HLA-A*02:01 [1]; [25]): 7.12
pKd (HLA-A*02:06; [25]): 7.74
pKd (HLA-A*02:17; [25]): 4.70

Sequence: NPITLTAAL
pKd (HLA-B*51:01 [9]; source organism: dengue virus type 2): ≤ 4.70
pKd (HLA-B*35:01; [12]): 7.60
pKd (HLA-B*08:01; [12]): 7.16
pKd (HLA-B*53:01; [12]): 6.42

Sequence: PASAAQRRGR
pKd (HLA-B*58:01; [13]): 4.81

Sequence: QIMEVTARW
pKd (HLA-A*32:01; [21]): 7.25
pKd (HLA-B*58:01; [21]): 7.73

Sequence: QLWTALISL
pKd (HLA-A*02:01 [1]; [16]): 8.84
pKd (HLA-A*02:17; [16]): 6.63

Sequence: RTVFFVLMM
pKd (HLA-A*32:01; [13]): ≤ 4.29
pKd (HLA-B*58:01; [13]): 6.20

Sequence: RVIDSRKSV
pKd (HLA-B*51:01 [9]; [17]): 5.80

Sequence: TEWPQLKVA
pKd (HLA-A*02:01 [3]; [26]): ≤ 4.70
pKd (HLA-A*02:12; [26]): ≤ 4.70
pKd (HLA-A*02:16; [26]): ≤ 4.70
pKd (HLA-B*18:01; [26]): 7.47
pKd (HLA-A*02:11; [26]): ≤ 4.70
pKd (HLA-A*29:02; [26]): ≤ 4.70
pKd (HLA-A*03:01; [26]): ≤ 4.70
pKd (HLA-A*02:19; [26]): ≤ 4.70
pKd (HLA-B*15:01 [4]; [26]): ≤ 4.70
pKd (HLA-B*15:17; [26]): ≤ 4.70
pKd (HLA-A*68:02 [8]; [26]): ≤ 4.70
pKd (HLA-A*69:01; [26]): ≤ 4.70
pKd (HLA-B*39:01; [26]): ≤ 4.70
pKd (HLA-B*27:03; [26]): ≤ 4.70
pKd (HLA-B*46:01; [26]): ≤ 4.70
pKd (HLA-A*02:03 [5]; [26]): ≤ 4.70
pKd (HLA-B*51:01 [6]; [26]): ≤ 4.70
pKd (HLA-B*57:01; [26]): ≤ 4.70
pKd (HLA-A*26:01; [26]): ≤ 4.70

Sequence: VLMLVAHYA
pKd (HLA-A*02:01 [1]; [21]): 8.18
pKd (HLA-A*02:17; [21]): 4.88
pKd (HLA-A*02:03 [2]; [22]): 8.56

Sequence: VTFGARASF
pKd (HLA-A*02:01 [3]; [27]): ≤ 4.70
pKd (HLA-A*02:12; [27]): ≤ 4.70
pKd (HLA-A*02:16; [27]): ≤ 4.70
pKd (HLA-A*02:11; [27]): ≤ 4.70
pKd (HLA-A*03:01; [27]): ≤ 4.70
pKd (HLA-A*02:19; [27]): ≤ 4.70
pKd (HLA-A*69:01; [27]): ≤ 4.70
pKd (HLA-B*39:01; [27]): ≤ 4.70
pKd (HLA-B*27:03; [27]): ≤ 4.70
pKd (HLA-A*02:03 [5]; [27]): ≤ 4.70
pKd (HLA-B*57:01; [27]): 7.01
pKd (HLA-A*26:01; [27]): ≤ 4.70

Sequence: YLDVDLHPA
pKd (HLA-A*02:01 [1]; [23]): 8.35
pKd (HLA-A*02:06; [16]): 7.43
pKd (HLA-A*02:17; [23]): 5.72
